Read-outs that look alike come from different tables or passages of the source. No end group written: not given here.
T1: SpyTag002-MBP (also: fused to MBP, sequence and linker not given here)
T1 construct: not shown: construct pET28a SpyTag002-MBP, GenBank MF974389
T1 chain: VPTIVMVDAYKRYK

T2: SpyTag003 DA-MBP (also: fused to MBP, sequence and linker not given here)
T2 chain: RGVPHIVMVAAYKRYK

B1: SpyCatcher003-sfGFP (designed binder)
chain: VTTLSGLSGEQGPSGDMTTEEDSATHIKFSKRDEDGRELAGATMELRDSSGKTISTWISDGHVKDFYLYPGKYTFVETAAPDGYEVATPIEFTVNEDGQVTVDGEATEGDAHT
notes: also called SpyCatcher003 fused to the N-terminus of super-folder GFP; not shown: super-folder GFP (sfGFP) C-terminal of the catcher
B2: SpyCatcher003 (designed binder)
chain: VTTLSGLSGEQGPSGDMTTEEDSATHIKFSKRDEDGRELAGATMELRDSSGKTISTWISDGHVKDFYLYPGKYTFVETAAPDGYEVATPIEFTVNEDGQVTVDGEATEGDAHT
notes: also called 003 Catcher

Key:
SpyTag003-MBP [1] = assay: SDS-PAGE with sfGFP fluorescence, pH 7.0, 25 C
Method: (§1) The sfGFP fusions were used to enable reactions to be carried out at concentrations as low as 10 nM. […] Percentage isopeptide product formation was calculated by dividing the intensity of the band for the covalent complex by the intensity of all the bands in the lane and multiplying by 100. […] Time-points were analysed during the linear portion of the reaction curve. […] Experiments were carried out in triplicate and the data represent the mean±1 standard deviation.

SpyTag-MBP = target: T3, SpyTag-MBP; assay: SDS-PAGE with sfGFP fluorescence, pH 7.0, 25 C
T3 construct: not shown: construct pET28a-SpyTag-MBP, Addgene 35050

SpyTag002-MBP = target: T1, SpyTag002-MBP; assay: SDS-PAGE with sfGFP fluorescence, pH 7.0, 25 C
Method: as §1

SpyTag003-MBP [2] = assay: SDS-PAGE with sfGFP fluorescence, pH 7.0, 25 C; remark: listed apart in the source
Method: as §1

SpyTag003 DA-MBP = target: T2, SpyTag003 DA-MBP; assay: isothermal titration calorimetry, 20 C, PBS pH 7.4, non-covalent complex
Method: Experiments were carried out using a Microcal PEAQ-ITC calorimeter (Malvern) at 20° C. in PBS pH 7.4. […] Analysis was carried out using a 1:1 binding model using MicroCal PEAQ-ITC Analysis software version 1.1.0.1262.

| Binder | Rate constant (second-order, isopeptide bond formation) (SpyTag003-MBP [1]) | Rate constant (second-order, isopeptide bond formation) (SpyTag-MBP) | Rate constant (second-order, isopeptide bond formation) (SpyTag002-MBP) | Rate constant (second-order, isopeptide bond formation) (SpyTag003-MBP [2]) | Kd (SpyTag003 DA-MBP) |
| --- | --- | --- | --- | --- | --- |
| B1 | 550000 M⁻¹ s⁻¹ | 24000 M⁻¹ s⁻¹ | 83000 M⁻¹ s⁻¹ | 550000 M⁻¹ s⁻¹ |  |
| B2 |  |  |  |  | < 10 nM |

— patent US20220135628A1 (OXFORD UNIVERSITY INNOVATION, published 2022)
